Type in all cases: biochemical
Data set [1] is described as follows: Lactate dehydrogenase activity (natural substrate). The note with it: natural substrate (L)-lactate; Table 2.
Data set [2] is described as follows: DHB dehydrogenase activity of cytosolic enzymes (DHB-dependent reduction of NAD+).
Experimental: Activity of the cytosolic DHB dehydrogenases (Ec-Mdh, Bs-Mdh, Ll-LdhA) was assayed by following the DHB-dependent reduction of NAD^+.
The reaction mixture contained 60 mM Hepes (pH 8), 50 mM potassium chloride, 5 mM MgCl2, 10 mM NAD, (optionally, 5 mM fructose-1,6-bisphosphate (F16bP)) (all products from Sigma), and appropriate amounts of purified enzyme or cell extract. Reactions were started by adding 50 mM (L)-2,4-dihydroxybutyrate (Rhodia).
All enzymatic assays were carried out at 37° C. in 96-well flat bottomed microtiter plates in a final volume of 250 μL. The reactions were followed by the characteristic absorption of NADH at 340 nm (εNADH=6.22 mM^−1 cm^−1) or the absorbtion of DCIP at 655 nm (εDCIP=5.9 mM^−1 cm^−1) in a microplate reader (BioRad 680XR).
The nature of data set [3]: Pyruvate decarboxylase activity (coupled to yeast alcohol dehydrogenase). To be noted: activity measured at 50 mM pyruvate (Pdc mutants); Table 10. As for the experimental part: OHB decarboxylase activity was assayed by coupling the decarboxylase activity to the NADPH-dependent reduction of the released 3-hydroxypropanal by purified aldehyde reductase, YqhD, from E. coli. The decarboxylation of pyruvate was coupled to the NADH-dependent reduction of acetaldehyde catalysed by yeast alcohol dehydrogenase. Branched-chain alpha-ketoacid decarboxylase activity was measured on 4-methyl-2-oxovaleric acid by coupling to the NADH-dependent reduction of 3-methylbutanal catalysed by horse liver alcohol dehydrogenase. […]

Data set [4] is described as follows: OHB decarboxylase activity (coupled to YqhD, NADPH). The note with it: for Max. specific activity, OHB: activity measured at 20 mM OHB, Table 10; for Effect of mutation on activity and/or specificity for OHB (in words): versus wild-type enzyme. The protocol: OHB decarboxylase activity was assayed by coupling the decarboxylase activity to the NADPH-dependent reduction of the released 3-hydroxypropanal by purified aldehyde reductase, YqhD, from E. coli. The decarboxylation of pyruvate was coupled to the NADH-dependent reduction of acetaldehyde catalysed by yeast alcohol dehydrogenase. Branched-chain alpha-ketoacid decarboxylase activity was measured on 4-methyl-2-oxovaleric acid by coupling to the NADH-dependent reduction of 3-methylbutanal catalysed by horse liver alcohol dehydrogenase. […] Reactions were started by adding 20 mM 2-oxo-4-hydroxybutyrate (OHB), 10 mM 4-methyl-2-oxovaleric acid (MOV), or 5 mM pyruvate.

B1: Ll-LdhA: (L)-lactate dehydrogenase of Lactococcus lactis, cytosolic, SEQ ID No. 120 (protein, listed as Lactococcus lactis)
chain: MADKQRKKVILVGDGAVGSSYAFALVNQGIAQELGIVDLFKEKTQGDAEDLSHALAFTSPKKIYSADYSDASDADLVVLTSGAPQKPGETRLDLVEKNLRITKDVVTKIVASGFKGIFLVAANPVDILTYATWKFSGFPKNRVVGSGTSLDTARFRQALAEKVDVDARSIHAYIMGEHGDSEFAVWSHANVAGVKLEQWFQENDYLNEAEIVELFESVRDAAYSIIAKKGATFYGVAVALARITKAILDDEHAVLPVSVFQDGQYGVSDCYLGQPAVVGAEGVVNPIHIPLNDAEMQKMEASGAQLKAIIDEAFAKEEFASAVKN
As for B1, the “Max. specific activity, Natural substrate” value in data set [1] was 8.8 µmol/mg/min. Also, in data set [2] (cytosolic wild-type enzymes), the “DHB dehydrogenase activity (in words)” value is “have DHB dehydrogenase activity”. The “Max. specific activity, DHB” value in data set [2] (when not saturated, activity estimated at 50 mM substrate, Table 2) was 1 µmol/mg/min.

B2: Zm-Pdc W392L: Z. mobilis pyruvate decarboxylase mutant W392L, SEQ ID No. 192 (protein, listed as Zymomonas mobilis)
chain: MSYTVGTYLAERLVQIGLKHHFAVAGDYNLVLLDNLLLNKNMEQVYCCNELNCGFSAEGYARAKGAAAAVVTYSVGALSAFDAIGGAYAENLPVILISGAPNNNDHAAGHVLHHALGKTDYHYQLEMAKNITAAAEAIYTPEEAPAKIDHVIKTALREKKPVYLEIACNIASMPCAAPGPASALFNDEASDEASLNAAVEETLKFIANRDKVAVLVGSKLRAAGAEEAAVKFADALGGAVATMAAAKSFFPEENPHYIGTSWGEVSYPGVEKTMKEADAVIALAPVFNDYSTTGWTDIPDPKKLVLAEPRSVVVNGIRFPSVHLKDYLTRLAQKVSKKTGALDFFKSLNAGELKKAAPADPSAPLVNAEIARQVEALLTPNTTVIAETGDSLFNAQRMKLPNGARVEYEMQWGHIGWSVPAAFGYAVGAPERRNILMVGDGSFQLTAQEVAQMVRLKLPVIIFLINNYGYTIEVMIHDGPYNNIKNWDYAGLMEVFNGNGGYDSGAGKGLKAKTGGELAEAIKVALANTDGPTLIECFIGREDCTEELVKWGKRVAAANSRKPVNKLL
Take B2: the “Max. specific activity, Natural substrate” value in data set [3] came to 0.09 µmol/mg/min. In data set [4], the “Max. specific activity, OHB” value is 0.04 µmol/mg/min and the “Effect of mutation on activity and/or specificity for OHB (in words)” value is recorded as “increased activity and/or specificity for OHB”.

B3: Zm-Pdc G413N: Z. mobilis pyruvate decarboxylase mutant G413N, SEQ ID No. 194 (protein, listed as Zymomonas mobilis)
chain: MSYTVGTYLAERLVQIGLKHHFAVAGDYNLVLLDNLLLNKNMEQVYCCNELNCGFSAEGYARAKGAAAAVVTYSVGALSAFDAIGGAYAENLPVILISGAPNNNDHAAGHVLHHALGKTDYHYQLEMAKNITAAAEAIYTPEEAPAKIDHVIKTALREKKPVYLEIACNIASMPCAAPGPASALFNDEASDEASLNAAVEETLKFIANRDKVAVLVGSKLRAAGAEEAAVKFADALGGAVATMAAAKSFFPEENPHYIGTSWGEVSYPGVEKTMKEADAVIALAPVFNDYSTTGWTDIPDPKKLVLAEPRSVVVNGIRFPSVHLKDYLTRLAQKVSKKTGALDFFKSLNAGELKKAAPADPSAPLVNAEIARQVEALLTPNTTVIAETGDSWFNAQRMKLPNGARVEYEMQWNHIGWSVPAAFGYAVGAPERRNILMVGDGSFQLTAQEVAQMVRLKLPVIIFLINNYGYTIEVMIHDGPYNNIKNWDYAGLMEVFNGNGGYDSGAGKGLKAKTGGELAEAIKVALANTDGPTLIECFIGREDCTEELVKWGKRVAAANSRKPVNKLL
On to B3, for which the “Max. specific activity, Natural substrate” value in data set [3] is 0.1 µmol/mg/min. Moreover, in data set [4], the “Max. specific activity, OHB” value came to 0.04 µmol/mg/min and the “Effect of mutation on activity and/or specificity for OHB (in words)” value was “increased activity and/or specificity for OHB”.

These data come from US9605283B2, “Microorganism modified for the production of 1,3-propanediol” (INSTITUT NATIONAL DES SCIENCES APPLIQUÉES, priority 2012, dated 2017).
